Laboratory results from patent US20240287172A1 (SCIRHOM, published 2024).
Where a chain is given by its changes, count along the chain named.

B1: antibody 34 (antibody, V domains shown)
VH: QVTLKESGPGILQPSQTLSLTCSFSGFSLSTFSLGVGWIRQSSGKGLEWLAHIWWDDEKYYNPALKSRLTISKDTSKNQVFLKIANVDAADTATYYCARAYYSKSYYALDYWGQGTSVTVSS
VL: DIQMTQSPSSLSASLGERVSLTCRASQEISGYLSWLQQKPDGTIKRLIYAASTLDSGVPKRFSGSRSGSDYSLAISSLESEDFADYYCLQYANFPFTFGSGTKLEIK
notes: mouse IgG, kappa light chain; also called clone #34; purified antibody 34
B2: antibody 5 (antibody, V domains shown)
VH: QVTLKESGPGILQPSQTLSLTCSFSGFSLSTFGMGVGWIRQPSGKGLEWLAHIWWDDEKYYNSALKSRLTISKATSKNQAFLKIANVDTADTATYYCARISNYGSNYWYFNVWGTGTTVTVSS
VL: QVVLTQSPALMSASPGEKVTMTCSAGSSVSCMYWYQQKPGSSPRVLIYDTSNLASGVPARFTGSGSGTSYSLTISRMEAEDAASYYCQQWNSYPLTFGAGTKLELK
notes: mouse IgG, kappa light chain; also called clone #5; purified antibody 5
B3: antibody 44 (antibody, V domains shown)
VH: B2 VH with G44E, E58D, S63P, A74D, A80I, A85T, D91E, A98S, S101G, N111D
VL: QIVLTQSPAVMSASPGEKVTMTCTASSSVYYMYWYQQTPGSSPRLLIYDTSNLASGVPVRFSGSGSGTSYSLTISRMEAEDAATYYCQQWNTYPLTFGAGTKLELK
notes: mouse IgG, kappa light chain; also called clone #44; purified antibody 44
B4: antibody 43 (antibody, V domains shown)
VH: B2 VH with T3A, P42S, H52N, E58D, S63P, A74D, T75A, S101G, N111D
VL: QIVLTQSPAIMSASPGERVTMTCSANSRISYMYWYQQKPGSSPRLLIYDTSNLASGVPVRFSGSGSGTSYSLTISRMEAEDAATYNCQQWSSYPLTFGAGTKLELK
notes: mouse IgG, kappa light chain; also called clone #43; purified antibody 43
B5: antibody 42 (antibody, V domains shown)
VH: B2 VH with F24L, M34R, S63P, A74D, A80V, K83R, S101Q, N111D
VL: B4 VL with Q1L, R18K, S24G, N26T, Y33F, L45V, M77V, A82V, N86Y, S91N
notes: mouse IgG, kappa light chain; also called clone #42; purified antibody 42
B6: antibody 22 (antibody, V domains shown)
VH: B2 VH with A80V
VL: B2 VL with C31Y, S84T
notes: mouse IgG, kappa light chain; also called clone #22; purified antibody 22
B7: antibody 16 (antibody, V domains shown)
VH: QVTLKESGPGILQPSQTLSLTCSFSGFSLSTFALGVGWIRQPSGRGLEWLAHIWWDDDKYYNPALKSRLTISKDTSKNHVFLKIANVDTADTATYYCARITTYYYGMDYWGQGTSVTVSS
VL: DIVLSQSPATLSVTPGDSVSLFCRASQSIGNHLHWYQQESHASPRLLIKYASQSISGIPSRFSGSGSGTDFTLSINSVETEDFGMYFCQQSYNWPLTFGAGTKLELK
notes: mouse IgG, kappa light chain; also called clone #16; purified antibody 16
B8: antibody 3 (antibody, V domains shown)
VH: QVTLKESGPGILQPSQTLSLTCSFSGFSLTTFAMGIGWVRQPSGKGLEWLAHIWWDGEKYNNPVLKSRLTISKDTSKNQVFLRIANVDTPDTATYYCARISSIYYIIDNWGQGTSVTVSS
VL: B7 VL with S5T, D17H, F22S, G30S, H32N, Q38K, E39K, A42E, A51V
notes: mouse IgG, kappa light chain; also called clone #3; purified antibody 3

Target: T1, hiR2-FL-K536-T7 (deletion of K536) (human, UniProt Q6PJF5 1-856)
T1 construct: single amino acid deletion
T1 sequence: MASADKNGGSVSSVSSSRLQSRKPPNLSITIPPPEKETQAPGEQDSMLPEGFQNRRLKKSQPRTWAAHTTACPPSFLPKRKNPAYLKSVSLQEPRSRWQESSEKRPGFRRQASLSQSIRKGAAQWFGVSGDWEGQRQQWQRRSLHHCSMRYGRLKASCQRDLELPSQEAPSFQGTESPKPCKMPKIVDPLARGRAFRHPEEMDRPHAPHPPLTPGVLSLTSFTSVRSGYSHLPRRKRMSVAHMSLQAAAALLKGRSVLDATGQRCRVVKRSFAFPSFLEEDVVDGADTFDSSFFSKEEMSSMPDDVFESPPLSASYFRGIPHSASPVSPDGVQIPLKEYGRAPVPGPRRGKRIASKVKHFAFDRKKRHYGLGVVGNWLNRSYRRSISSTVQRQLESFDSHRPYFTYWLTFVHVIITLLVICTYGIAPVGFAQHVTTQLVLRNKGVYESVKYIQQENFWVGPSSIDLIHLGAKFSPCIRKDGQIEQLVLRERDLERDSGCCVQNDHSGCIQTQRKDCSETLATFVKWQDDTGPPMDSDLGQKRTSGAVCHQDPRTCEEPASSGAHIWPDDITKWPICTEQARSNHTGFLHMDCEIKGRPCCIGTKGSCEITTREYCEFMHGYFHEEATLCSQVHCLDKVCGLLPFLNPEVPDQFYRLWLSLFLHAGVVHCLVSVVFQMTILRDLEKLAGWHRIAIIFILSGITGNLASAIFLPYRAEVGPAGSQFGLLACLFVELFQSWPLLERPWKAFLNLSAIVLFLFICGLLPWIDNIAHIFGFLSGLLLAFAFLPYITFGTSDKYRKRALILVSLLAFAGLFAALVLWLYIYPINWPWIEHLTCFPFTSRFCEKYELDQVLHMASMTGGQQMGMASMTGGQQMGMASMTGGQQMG
Assay: FACS, MEF-DKO cells, 3 µg/ml

Row | Binder | loss of binding vs wild type
1 | B1 | ≥ 95%
2 | B2 | ≥ 95%
3 | B3 | ≥ 95%
4 | B4 | ≥ 95%
5 | B5 | ≥ 95%
6 | B6 | ≥ 95%
7 | B7 | ≥ 95%
8 | B8 | ≥ 95%
